From article PMC9684487, “Human antibody recognition and neutralization mode on the NTD and RBD domains of SARS-CoV-2 spike protein” (Scientific Reports, 2022)

B1: 7G7/κ (antibody, V domains shown)
VH: QVQLVESGGGVVQPGRSLRLSCIASGFTFRNYAMYWVRQAPGKGLEWVAVIWYDGSNKFYTDSVKGRFTISRDNSKNSLYLQMNSLRAEDTAVYFCARDQGFGDNYYYYGMDVWGQGTTVTVSS
VL: SYELTQPPSVSVSPGQTARISCSGDALPKEYAYWYQQKPGQAPVLVIYKDSERPSGIPERFSGSSSGTTVTLTISGVQAEDEADYYCQLADSSMHYVVFGGGTKLTVL
notes: also called 7G7-IgG1κ; 7G7/κ (IgG1/Igκ); source: Expi293F, cotransfected with IgH and IgL vectors, purified (HiTrap Protein G)
B2: NIBIC-71 (antibody, V domains shown)
VH: EVQLVESGGGLIQPGGSLRLSCEASGLIVSSNYMTWVRQAPGKGLEWVSVIYSGGSTFYADSVKGRFTVSRDNSKNTLYLQMNNLSPEDTAVYYCARDLGPYGVDVWGQGTTVTVSS
VL: AIQLTQSPSSLSASVGDRVTITCRASQGISSYLAWYQQTPGKAPKLLIYAASTLQSGVPSRFSGSGSGTDFTLTISSLQPEDFATYYCQQLNSYPPFTFGPGTKVDIK
notes: also called recombinant mAb NIBIC-71

Target: T1, S protein trimer with D614G mutation (SARS-CoV-2, D614G, D614G)
T1 construct: also called Spike; homotrimeric S protein
Test: cryo-EM structure
Settings: both partners purified

Row | Binder | stoichiometry N [Fabs per S protein trimer]
1 | B1 | 3
2 | B2 | 2
